Measured values from patent publication US20180194862A1.

Molecular target: human CD40 on cells (HEK293 stable transfectants, HEK-Blue CD40 cells, human B cells, monocytic cells, dendritic cells) (human) (UniProt P25942)
Test: cell-based or functional assay

Sequence of human CD40 on cells (HEK293 stable transfectants, HEK-Blue CD40 cells, human B cells, monocytic cells, dendritic cells) (human) (P25942 21-277 limits assumed): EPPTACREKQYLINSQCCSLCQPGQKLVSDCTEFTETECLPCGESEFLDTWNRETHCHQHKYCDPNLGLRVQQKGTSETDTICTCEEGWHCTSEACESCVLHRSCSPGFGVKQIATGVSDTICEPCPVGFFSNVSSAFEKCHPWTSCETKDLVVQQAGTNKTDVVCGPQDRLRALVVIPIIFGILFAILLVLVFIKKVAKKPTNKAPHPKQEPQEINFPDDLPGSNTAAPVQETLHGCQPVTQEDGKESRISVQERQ

Monocyte activation (THP1-Xblue, OD655): 0.12 OD655
moDC activation (IL-12p70): 139 pg/mL
Substance: anti-human CD40 G28-5 (mouse IgG1) (Biolegend) (antibody)
